Numbering of substitutions follows the chain as printed.
B1: 116(VR12117) (antibody, from another filing, V domains shown)
VH: QSVEESGGRLVTPGTPLTLTCTVSGFSLSNYAMSWVRQAPGKGLEWIGIIYTTGFTYYASWVKGRFTISKTSTTVDLKITSPTTEDTATYFCARGLATYVSPPTRLDLWGQGTLVTVSS
VL: AQVLTQTPSPVSAAVGGTVTINCQASQSIYNSKNLAWYQQKPGQPPKLLIYSASTLASGVPSRFKGSGSGTQFTLTISDLECDDAATYYCQGEFSCSSVDCATFGGGTEVVVK
B2: 16(VR11834) (antibody, from another filing, V domains shown)
VH: EVQLVESGGGLVKPGGSLKLSCAASGFTFSNYAMSWVRQTPEKRLEWVAAINSNGGSAYYPDTVKDRFTISRDNAKNTLYLQMSSLRSEDTALYYCARRFYYDYGWFAYWGQGTLVTVSS
VL: DIVLTQSPASLSASVGETVTITCRASENIDSYLAWYQQKQGKSPQLLVYAATLLADGVPSRFSGSGSGTQYSLKINSLQSEDVARYYCQHYYSSPWTFGGGTKLEIK
B3: 110(VR12112) (antibody, from another filing, V domains shown)
VH: QSVEESGGRLVTPGTPLTLTCTVSGFSLSSYAMIWVRQAPGKGLEWIGIINSSDNTHYATWAKGRFTISKTSTTVDLKITSPTTEDTATYFCARDPYDYGYGWYFDLWGPGTLVTVSS
VL: AQVLTQTPSPVSAAVGGTVTINCQASQSVFNNKNLAWYQQKPGQPPKLLIYKASTLASGVSSRFKGSGSGTQFALTISGVQCDDAATYYCQGEFSCSSTDCVTFGGGTEVVVK
B4: 111(VR12113) (antibody, from another filing, V domains shown)
VH: QSVEESGGRLVTPGTPLTLTCTASGFSLSTYAMSWVRQAPGKGLEWIGIISSSGSTYYASWAKGRFTISKTSTTVDLKITSPTTEDTATYFCARETWYWLDLWGQGTLVTVSS
VL: AVEMTQTPASVSAAVGGTVTINCQASEDIYSNLAWYQQKPGQPPKLLIYGASTLASGVPSRFKGSGSGTEYTLTISGVQCDDAATYYCQCAYDSSSYGTPFGGGTEVVVK
B5: 77A(VR11851) (antibody, V domains shown)
VH: QSVEESGGRLVTPGTPLTLTCTVSGFSLSSYAMSWVRQAPGKGLEWIGIISSSGTTYYASWAKGRFTISKTSTTVDLKITSPTTEDTATYFCARVDYYSSGWGGLWGPGTLVTVSS
VL: B4 VL with V11M, N22K, A91T, S94T, T99N, P100T, V107M, K110E

Tests used:
[1] = target: 人类CD1a池B蛋白 (human CD1a pool B protein, recombinant) (human) (UniProt P06126); experiment: SPR (Biacore T200), antibody captured, human CD1a titrated, 1:1 model
[2] = target: 人类CD1a池B蛋白 (human CD1a pool B protein, recombinant) (human) (UniProt P06126); experiment: SPR (Biacore T200), antibody captured, human CD1a titrated, heterogeneous ligand model
[3] = target: T1, 人类CD1a池B蛋白 (human CD1a pool B protein, recombinant) (human, UniProt P06126 17-300, limits assumed); experiment: SPR (Biacore T200), antibody captured on anti-species F(ab')2, human CD1a titrated 0-50 nM, 1:1 model
T1 construct: Recombinant protein used in ELISA, Biacore and on beads; also called 人类CD1a蛋白; CD1a包被珠 (on beads)

[4] = target: T1, 人类CD1a池B蛋白 (human CD1a pool B protein, …); experiment: SPR (Biacore T200), antibody captured, human CD1a titrated, 1:1 model

T1 sequence (P06126 17-300 limits assumed): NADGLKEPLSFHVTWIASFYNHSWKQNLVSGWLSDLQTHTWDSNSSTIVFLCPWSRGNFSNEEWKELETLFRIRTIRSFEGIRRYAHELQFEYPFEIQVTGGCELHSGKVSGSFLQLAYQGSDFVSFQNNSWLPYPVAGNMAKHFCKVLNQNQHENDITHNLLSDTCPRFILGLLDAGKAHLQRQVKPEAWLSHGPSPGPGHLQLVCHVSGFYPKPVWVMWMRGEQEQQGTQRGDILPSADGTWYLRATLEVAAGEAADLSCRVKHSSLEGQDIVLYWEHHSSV

Binder | Kd [1] | koff [1] | kon [1] | further results
B1 | 2.89 nM | 0.0014 s⁻¹ | 483000 M⁻¹ s⁻¹ | 
B2 |  |  |  | Kd [2]: 0.392 nM; ka 2 [2]: 514000 M⁻¹ s⁻¹; kd 2 [2]: 0.00658 s⁻¹; koff [2]: 0.000729 s⁻¹; kon [2]: 1.86e+06 M⁻¹ s⁻¹
B3 | 1.97 nM | 0.000874 s⁻¹ | 443000 M⁻¹ s⁻¹ | 
B4 | 0.0312 nM | 1.47e-08 s⁻¹ | 321000 M⁻¹ s⁻¹ | 
B5 |  |  |  | kon [3]: 469000 M⁻¹ s⁻¹; Kd [4]: 0.24 nM; koff [4]: 0.000113 s⁻¹

— CN117651715A (UNIV OXFORD INNOVATION LTD, dated 2024)
